Results taken from patent publication US20260152552A1 (CURON BIOPHARMACEUTICAL SHANGHAI, published 2026).
Changes are numbered by the printed parent chain.

B1: humanized anti-L1CAM antibody hz26A12C1H3L2 (antibody, V domains shown)
VH: QVQLVQSGAEVKKPGSSVKVSCKASGYTFTNYWIQWVRQAPGQGLEWIGYINPSTYYSDYAQKFQGRVTLTADESTSTAYMELSSLRSEDTAVYYCARRQFGLPLFDYWGQGTTVTVSS
VL: DIQMTQSPSSLSASVGDRVTITCRASQDVGTAVAWYQQKPGKVPKLLIYWASTLHSGVPSRFSGSGSGTDFTLTISSLQPEDVATYYCQQYSNYPLTFGGGTKVEIK
B2: humanized anti-L1CAM antibody hz26A12C1H4L2 (antibody, V domains shown)
VH: B1 VH with A61N, E74K
VL: B1 VL
B3: humanized anti-L1CAM antibody hz26A12C1H3L3 (antibody, V domains shown)
VH: B1 VH
VL: B1 VL with Y87F
B4: humanized anti-L1CAM antibody hz26A12C1H4L3 (antibody, V domains shown)
VH: B1 VH with A61N, E74K
VL: B1 VL with Y87F
B5: humanized anti-L1CAM antibody hz26A12C1H2L2 (antibody, V domains shown)
VH: B1 VH with I48M, L70I
VL: B1 VL
B6: humanized anti-L1CAM antibody hz26A12C1H4L1 (antibody, V domains shown)
VH: B1 VH with A61N, E74K
VL: B1 VL with V33L, H55Q
B7: humanized anti-L1CAM antibody hz26A12C1H2L1 (antibody, V domains shown)
VH: B1 VH with I48M, L70I
VL: B1 VL with V33L, H55Q
B8: humanized anti-L1CAM antibody hz26A12C1H3L1 (antibody, V domains shown)
VH: B1 VH
VL: B1 VL with V33L, H55Q
B9: humanized anti-L1CAM antibody hz26A12C1H2L3 (antibody, V domains shown)
VH: B1 VH with I48M, L70I
VL: B1 VL with Y87F
B10: humanized anti-L1CAM antibody hz49E10H1H7L6 (antibody, V domains shown)
VH: QVQLQESGPGLVKPSQTLSLTCTVSGGSISSDYAWNWIRQPPGKGLEWMGYITYSGTTTYNPSLKSRITISRDTSKNQFSLKLSSVTAADTAVYYCTLDHYGNYAYFDYWGQGTTVTVSS
VL: DIQMTQSPSSLSASVGDRVTITCRASSSVSFMHWYQQKPGKAPKPWIYASSNLVSGVPSRFSGSGSGTDFTLTISSLQPEDFATYYCQQWSSNPSTFGGGTKVEIK
B11: humanized anti-L1CAM antibody hz103E9B3H6L5 (antibody, V domains shown)
VH: EVQLVQSGAEVKKPGASVKVSCKASGYTFTSYTMHWVRQAPGQGLEWMGDINPNYGGTSYNEKFKDRATMTTDTSTSTAYMELRSLRSDDTAVYYCAREGATGTWYFDVWGQGTTVTVSS
VL: B10 VL with R24S, H33F, W46L, A49L, S50T, V54A, S91R, S95P
B12: humanized anti-L1CAM antibody hz49E10H1H4L6 (antibody, V domains shown)
VH: B10 VH with M49I, I68V, R72V, T97A, L98R
VL: B10 VL
B13: humanized anti-L1CAM antibody hz49E10H1H6L7 (antibody, V domains shown)
VH: B10 VH with Q1D, M49I, I68V
VL: B10 VL with D1Q, F70Y
B14: humanized anti-L1CAM antibody hz103E9B3H6L4 (antibody, V domains shown)
VH: B11 VH
VL: B10 VL with R24S, H33F, P45L, W46L, A49L, S50T, V54A, S91R, S95P
B15: humanized anti-L1CAM antibody hz103E9B3H9L4 (antibody, V domains shown)
VH: B11 VH with M48I, M70L, T72V, T74K
VL: B10 VL with R24S, H33F, P45L, W46L, A49L, S50T, V54A, S91R, S95P
B16: humanized anti-L1CAM antibody hz103E9B3H9L6 (antibody, V domains shown)
VH: B11 VH with M48I, M70L, T72V, T74K
VL: B10 VL with R24S, H33F, A49L, S50T, V54A, S91R, S95P
B17: humanized anti-L1CAM antibody hz49E10H1H5L6 (antibody, V domains shown)
VH: B10 VH with Q1D, T97A, L98R
VL: B10 VL
B18: humanized anti-L1CAM antibody hz103E9B3H6L6 (antibody, V domains shown)
VH: B11 VH
VL: B10 VL with R24S, H33F, A49L, S50T, V54A, S91R, S95P
B19: humanized anti-L1CAM antibody hz49E10H1H8L5 (antibody, V domains shown)
VH: B10 VH with Q1D, K44N
VL: B10 VL with P45L, W46L
B20: humanized anti-L1CAM antibody hz49E10H1H6L5 (antibody, V domains shown)
VH: B10 VH with Q1D, M49I, I68V
VL: B10 VL with P45L, W46L
B21: humanized anti-L1CAM antibody hz49E10H1H7L5 (antibody, V domains shown)
VH: B10 VH
VL: B10 VL with P45L, W46L
B22: humanized anti-L1CAM antibody hz49E10H1H8L7 (antibody, V domains shown)
VH: B10 VH with Q1D, K44N
VL: B10 VL with D1Q, F70Y
B23: humanized anti-L1CAM antibody hz103E9B3H7L4 (antibody, V domains shown)
VH: B11 VH with M48I, M70L
VL: B10 VL with R24S, H33F, P45L, W46L, A49L, S50T, V54A, S91R, S95P
B24: humanized anti-L1CAM antibody hz103E9B3H5L5 (antibody, V domains shown)
VH: B11 VH with A68V
VL: B10 VL with R24S, H33F, W46L, A49L, S50T, V54A, S91R, S95P
B25: humanized anti-L1CAM antibody hz103E9B3H7L5 (antibody, V domains shown)
VH: B11 VH with M48I, M70L
VL: B10 VL with R24S, H33F, W46L, A49L, S50T, V54A, S91R, S95P
B26: humanized anti-L1CAM antibody hz49E10H1H6L6 (antibody, V domains shown)
VH: B10 VH with Q1D, M49I, I68V
VL: B10 VL
B27: humanized anti-L1CAM antibody hz49E10H1H7L7 (antibody, V domains shown)
VH: B10 VH
VL: B10 VL with D1Q, F70Y
B28: humanized anti-L1CAM antibody hz49E10H1H4L7 (antibody, V domains shown)
VH: B10 VH with M49I, I68V, R72V, T97A, L98R
VL: B10 VL with D1Q, F70Y
B29: humanized anti-L1CAM antibody hz49E10H1H5L5 (antibody, V domains shown)
VH: B10 VH with Q1D, T97A, L98R
VL: B10 VL with P45L, W46L
B30: humanized anti-L1CAM antibody hz103E9B3H5L4 (antibody, V domains shown)
VH: B11 VH with A68V
VL: B10 VL with R24S, H33F, P45L, W46L, A49L, S50T, V54A, S91R, S95P
B31: humanized anti-L1CAM antibody hz103E9B3H9L5 (antibody, V domains shown)
VH: B11 VH with M48I, M70L, T72V, T74K
VL: B10 VL with R24S, H33F, W46L, A49L, S50T, V54A, S91R, S95P
B32: humanized anti-L1CAM antibody hz49E10H1H8L6 (antibody, V domains shown)
VH: B10 VH with Q1D, K44N
VL: B10 VL
B33: humanized anti-L1CAM antibody hz49E10H1H4L5 (antibody, V domains shown)
VH: B10 VH with M49I, I68V, R72V, T97A, L98R
VL: B10 VL with P45L, W46L
B34: humanized anti-L1CAM antibody hz49E10H1H5L7 (antibody, V domains shown)
VH: B10 VH with Q1D, T97A, L98R
VL: B10 VL with D1Q, F70Y
B35: humanized anti-L1CAM antibody hz103E9B3H5L6 (antibody, V domains shown)
VH: B11 VH with A68V
VL: B10 VL with R24S, H33F, A49L, S50T, V54A, S91R, S95P
B36: humanized anti-L1CAM antibody hz103E9B3H7L6 (antibody, V domains shown)
VH: B11 VH with M48I, M70L
VL: B10 VL with R24S, H33F, A49L, S50T, V54A, S91R, S95P

Molecular target: T1, human L1CAM (L1 cell adhesion molecule), endogenously expressed on the surface of HeLa cells (human, UniProt P32004 20-1257)
T1 construct: whole, on cells; also called CD171
T1 sequence (P32004 20-1257): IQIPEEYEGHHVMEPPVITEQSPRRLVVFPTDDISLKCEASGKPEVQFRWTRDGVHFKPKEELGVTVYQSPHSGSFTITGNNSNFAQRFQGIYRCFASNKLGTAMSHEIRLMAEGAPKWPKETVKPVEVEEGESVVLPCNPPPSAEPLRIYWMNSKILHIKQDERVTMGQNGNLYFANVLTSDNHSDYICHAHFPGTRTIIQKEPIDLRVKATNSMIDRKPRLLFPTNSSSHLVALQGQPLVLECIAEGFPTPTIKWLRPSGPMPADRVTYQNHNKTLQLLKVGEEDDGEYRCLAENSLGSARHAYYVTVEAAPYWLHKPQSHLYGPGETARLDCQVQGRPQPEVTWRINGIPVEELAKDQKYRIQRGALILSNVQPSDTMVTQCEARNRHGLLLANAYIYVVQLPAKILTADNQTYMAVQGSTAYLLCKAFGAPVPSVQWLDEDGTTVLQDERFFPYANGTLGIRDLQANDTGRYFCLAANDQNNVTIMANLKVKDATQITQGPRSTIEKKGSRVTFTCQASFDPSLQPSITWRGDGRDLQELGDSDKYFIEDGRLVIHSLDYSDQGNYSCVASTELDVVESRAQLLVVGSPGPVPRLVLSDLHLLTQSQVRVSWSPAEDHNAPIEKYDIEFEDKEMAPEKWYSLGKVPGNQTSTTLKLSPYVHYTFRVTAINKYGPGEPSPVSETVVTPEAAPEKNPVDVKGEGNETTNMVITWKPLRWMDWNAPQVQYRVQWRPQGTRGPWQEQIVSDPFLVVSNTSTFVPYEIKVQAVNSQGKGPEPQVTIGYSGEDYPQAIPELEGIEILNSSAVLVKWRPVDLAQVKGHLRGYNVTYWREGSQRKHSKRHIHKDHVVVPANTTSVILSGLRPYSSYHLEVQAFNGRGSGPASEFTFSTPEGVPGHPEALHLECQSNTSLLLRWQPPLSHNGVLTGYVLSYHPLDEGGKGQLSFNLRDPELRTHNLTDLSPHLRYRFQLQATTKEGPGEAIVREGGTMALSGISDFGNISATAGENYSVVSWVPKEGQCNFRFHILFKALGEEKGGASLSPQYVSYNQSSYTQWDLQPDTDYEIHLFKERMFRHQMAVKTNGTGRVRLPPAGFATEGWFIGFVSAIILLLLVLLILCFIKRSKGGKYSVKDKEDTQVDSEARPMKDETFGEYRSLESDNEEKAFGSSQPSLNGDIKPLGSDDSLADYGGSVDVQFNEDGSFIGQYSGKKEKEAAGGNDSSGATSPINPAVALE
Assay: flow cytometry on HeLa cells (endogenous human L1CAM)
Method: The experimental principle is as follows: HeLa cells express high levels of L1CAM protein on their surface. After incubating humanized L1CAM antibodies with the cells, the binding ability of the antibodies to L1CAM on the surface of HeLa cells can be determined by flow cytometry. The experimental method is descripted as following: Humanized L1CAM antibodies (Human IgG1-Kappa) are diluted in complete medium in a four-fold serial dilution, with seven concentration gradient points. HeLa cells are cultured in DMEM complete medium (Corning, 10-013-CVR) containing 10% FBS (Gibco, 10099-141) and 100 U/mL penicillin mixture (Thermofisher, 15140122). When the cell coverage in the culture container reaches 80-90%, TrypLE (Thermofisher, 12604-013) is used to digest the HeLa cells from the culture container, and they are seeded in a 96-well plate (AXYGEN, P-96-450V-C) at a density of 2.2×10⁶ cells/ml, with 100,000 cells (45 μL complete medium) per well. Then, 5 μL of the antibody dilution is added to each well, gently mixed, and the 96-well plate is incubated at 4° C. for 1 hour. Then, 150 μL of PBS solution containing 2% FBS (Corning, 21-040-CVC) is added to each well, centrifuged at 1400 rpm for 4 minutes, the supernatant is removed, and the wells are washed once more. Then, 50 μL of Alexa Flour 647-labeled goat anti-human fluorescent secondary antibody (Jacksonimmuno, 109-605-088) diluted 1:800 is added to each well, and the 96-well plate is incubated at 4° C. for 0.5 hours. The cells are washed twice with PBS solution containing 2% FBS, then resuspended in 120 μL of PBS, and the cell surface fluorescence signal is detected using a flow cytometer (BD FACS Celesta), obtaining the median fluorescence intensity (MFI). A dose-response curve is generated, and the half-maximal effective concentration (EC50) is calculated using non-linear regression with GraphPad software.

| Binder | EC50 [nM] |
| --- | --- |
| B1 | 2.33 |
| B2 | 0.562 |
| B3 | 0.838 |
| B4 | 0.738 |
| B5 | 7.82 |
| B6 | 0.646 |
| B7 | 24.7 |
| B8 | 2.99 |
| B9 | 0.853 |
| B10 | 1.05 |
| B11 | 1.48 |
| B12 | 0.853 |
| B13 | 0.996 |
| B14 | 6.59 |
| B15 | 5.56 |
| B16 | 2.06 |
| B17 | 0.404 |
| B18 | 2.18 |

| Binder | EC50 [nM] |
| --- | --- |
| B19 | 9.27 |
| B20 | 24.3 |
| B21 | 10.4 |
| B22 | 0.82 |
| B23 | 5.32 |
| B24 | 1.68 |
| B25 | 2.13 |
| B26 | 1.03 |
| B27 | 0.852 |
| B28 | 0.676 |
| B29 | 0.633 |
| B30 | 6.84 |
| B31 | 1.96 |
| B32 | 1.06 |
| B33 | 2.15 |
| B34 | 0.377 |
| B35 | 1.93 |
| B36 | 2.03 |
